Reference: patent publication US20220204580A1 (AstraZeneca / MedImmune, published 2022)
Numbered stars: 1 amine (or outer) side, 2 acyl side, 3 side chain; on linkers, the order of the positions; unused ones are H or OH. Bridge positions count the residues as written; N and C are the ends. Square brackets hold non-standard residues; d marks the D form. Side chains are listed from the residue outwards. Ends that are not written are not given here. * marks the point of attachment. C18 diacid = O=C(O)CCCCCCCCCCCCCCCCC(=O)*; γGlu = O=C(O)[C@H](CCC(=O)[*:2])N[*:1]; Aib = CC(C)(N)C(=O)O

T1: human calcitonin receptor (human, UniProt P30988 25-474)
T1 sequence (looked up): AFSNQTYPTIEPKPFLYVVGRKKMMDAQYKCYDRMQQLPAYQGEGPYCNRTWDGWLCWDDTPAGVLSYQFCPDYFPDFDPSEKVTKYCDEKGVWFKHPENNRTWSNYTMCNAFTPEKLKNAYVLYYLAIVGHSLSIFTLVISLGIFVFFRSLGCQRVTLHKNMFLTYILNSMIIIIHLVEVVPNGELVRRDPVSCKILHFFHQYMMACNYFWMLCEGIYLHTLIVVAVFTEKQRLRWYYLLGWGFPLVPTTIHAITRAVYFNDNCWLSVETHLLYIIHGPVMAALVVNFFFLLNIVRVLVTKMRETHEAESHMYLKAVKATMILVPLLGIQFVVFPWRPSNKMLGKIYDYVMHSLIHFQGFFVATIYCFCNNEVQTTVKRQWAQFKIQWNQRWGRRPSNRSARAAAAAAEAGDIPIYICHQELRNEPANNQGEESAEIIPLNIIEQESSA

T2: human amylin receptor (calcitonin receptor co-expressed with receptor activity modifying protein, RAMP3) (human, UniProt P30988 25-474; O60896 24-148)
T2 sequence (looked up) 1: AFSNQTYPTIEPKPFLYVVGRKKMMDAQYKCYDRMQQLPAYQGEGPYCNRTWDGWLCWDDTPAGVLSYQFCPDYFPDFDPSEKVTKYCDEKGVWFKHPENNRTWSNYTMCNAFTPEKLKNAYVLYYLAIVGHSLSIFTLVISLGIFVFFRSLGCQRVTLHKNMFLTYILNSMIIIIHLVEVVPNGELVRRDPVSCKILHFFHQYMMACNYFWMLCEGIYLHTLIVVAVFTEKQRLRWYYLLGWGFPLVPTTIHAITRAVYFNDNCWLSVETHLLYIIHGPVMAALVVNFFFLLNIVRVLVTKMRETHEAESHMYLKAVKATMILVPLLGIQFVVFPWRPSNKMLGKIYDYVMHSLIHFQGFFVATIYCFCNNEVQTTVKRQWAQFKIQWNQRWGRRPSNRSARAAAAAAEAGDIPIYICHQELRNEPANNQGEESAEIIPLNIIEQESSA
T2 sequence (looked up) 2: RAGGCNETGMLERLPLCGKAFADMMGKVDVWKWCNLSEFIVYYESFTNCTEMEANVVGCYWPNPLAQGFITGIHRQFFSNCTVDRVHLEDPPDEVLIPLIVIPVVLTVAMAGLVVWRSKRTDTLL

B1: Peptide 142 (SEQ ID NO: 142) (peptide)
peptide: K([γGlu-C18 diacid])KCNTATCATQRLANFL[Aib]HSSNNFGPILPPTNVGSETY-NH2
modifications: disulfide 3-8; N-terminus assumed
SMILES: CC[C@H](C)[C@H](NC(=O)[C@@H]1CCCN1C(=O)CNC(=O)[C@H](Cc1ccccc1)NC(=O)[C@H](CC(N)=O)NC(=O)[C@H](CC(N)=O)NC(=O)[C@H](CO)NC(=O)[C@H](CO)NC(=O)[C@H](Cc1c[nH]cn1)NC(=O)C(C)(C)NC(=O)[C@H](CC(C)C)NC(=O)[C@H](Cc1ccccc1)NC(=O)[C@H](CC(N)=O)NC(=O)[C@H](C)NC(=O)[C@H](CC(C)C)NC(=O)[C@H](CCCNC(=N)N)NC(=O)[C@H](CCC(N)=O)NC(=O)[C@@H](NC(=O)[C@H](C)NC(=O)[C@@H]1CSSC[C@H](NC(=O)[C@H](CCCCN)NC(=O)[C@@H](N)CCCCNC(=O)CC[C@H](NC(=O)CCCCCCCCCCCCCCCCC(=O)O)C(=O)O)C(=O)N[C@@H](CC(N)=O)C(=O)N[C@@H]([C@@H](C)O)C(=O)N[C@@H](C)C(=O)N[C@@H]([C@@H](C)O)C(=O)N1)[C@@H](C)O)C(=O)N[C@@H](CC(C)C)C(=O)N1CCC[C@H]1C(=O)N1CCC[C@H]1C(=O)N[C@H](C(=O)N[C@@H](CC(N)=O)C(=O)N[C@H](C(=O)NCC(=O)N[C@@H](CO)C(=O)N[C@@H](CCC(=O)O)C(=O)N[C@H](C(=O)N[C@@H](Cc1ccc(O)cc1)C(N)=O)[C@@H](C)O)C(C)C)[C@@H](C)O
B2: Peptide 143 (SEQ ID NO: 143) (peptide)
peptide: K([γGlu-C18 diacid])GGKCNTATCATQRLANFL[Aib]HSSNNFGPILPPTNVGSNTY-NH2
modifications: disulfide 5-10; N-terminus assumed
SMILES: CC[C@H](C)[C@H](NC(=O)[C@@H]1CCCN1C(=O)CNC(=O)[C@H](Cc1ccccc1)NC(=O)[C@H](CC(N)=O)NC(=O)[C@H](CC(N)=O)NC(=O)[C@H](CO)NC(=O)[C@H](CO)NC(=O)[C@H](Cc1c[nH]cn1)NC(=O)C(C)(C)NC(=O)[C@H](CC(C)C)NC(=O)[C@H](Cc1ccccc1)NC(=O)[C@H](CC(N)=O)NC(=O)[C@H](C)NC(=O)[C@H](CC(C)C)NC(=O)[C@H](CCCNC(=N)N)NC(=O)[C@H](CCC(N)=O)NC(=O)[C@@H](NC(=O)[C@H](C)NC(=O)[C@@H]1CSSC[C@H](NC(=O)[C@H](CCCCN)NC(=O)CNC(=O)CNC(=O)[C@@H](N)CCCCNC(=O)CC[C@H](NC(=O)CCCCCCCCCCCCCCCCC(=O)O)C(=O)O)C(=O)N[C@@H](CC(N)=O)C(=O)N[C@@H]([C@@H](C)O)C(=O)N[C@@H](C)C(=O)N[C@@H]([C@@H](C)O)C(=O)N1)[C@@H](C)O)C(=O)N[C@@H](CC(C)C)C(=O)N1CCC[C@H]1C(=O)N1CCC[C@H]1C(=O)N[C@H](C(=O)N[C@@H](CC(N)=O)C(=O)N[C@H](C(=O)NCC(=O)N[C@@H](CO)C(=O)N[C@@H](CC(N)=O)C(=O)N[C@H](C(=O)N[C@@H](Cc1ccc(O)cc1)C(N)=O)[C@@H](C)O)C(C)C)[C@@H](C)O
B3: Peptide 144 (SEQ ID NO: 144) (peptide)
peptide: K([γGlu-C18 diacid])CNTATCATQRLAHFL[Aib]HSSNNFGPILPPTNVGSNTY-NH2
modifications: disulfide 2-7; N-terminus assumed
SMILES: CC[C@H](C)[C@H](NC(=O)[C@@H]1CCCN1C(=O)CNC(=O)[C@H](Cc1ccccc1)NC(=O)[C@H](CC(N)=O)NC(=O)[C@H](CC(N)=O)NC(=O)[C@H](CO)NC(=O)[C@H](CO)NC(=O)[C@H](Cc1c[nH]cn1)NC(=O)C(C)(C)NC(=O)[C@H](CC(C)C)NC(=O)[C@H](Cc1ccccc1)NC(=O)[C@H](Cc1c[nH]cn1)NC(=O)[C@H](C)NC(=O)[C@H](CC(C)C)NC(=O)[C@H](CCCNC(=N)N)NC(=O)[C@H](CCC(N)=O)NC(=O)[C@@H](NC(=O)[C@H](C)NC(=O)[C@@H]1CSSC[C@H](NC(=O)[C@@H](N)CCCCNC(=O)CC[C@H](NC(=O)CCCCCCCCCCCCCCCCC(=O)O)C(=O)O)C(=O)N[C@@H](CC(N)=O)C(=O)N[C@@H]([C@@H](C)O)C(=O)N[C@@H](C)C(=O)N[C@@H]([C@@H](C)O)C(=O)N1)[C@@H](C)O)C(=O)N[C@@H](CC(C)C)C(=O)N1CCC[C@H]1C(=O)N1CCC[C@H]1C(=O)N[C@H](C(=O)N[C@@H](CC(N)=O)C(=O)N[C@H](C(=O)NCC(=O)N[C@@H](CO)C(=O)N[C@@H](CC(N)=O)C(=O)N[C@H](C(=O)N[C@@H](Cc1ccc(O)cc1)C(N)=O)[C@@H](C)O)C(C)C)[C@@H](C)O
B4: Peptide 145 (SEQ ID NO: 145) (peptide)
peptide: K([γGlu-C18 diacid])KCNTATCATQRLANFL[Aib]HSSNNFGPILPPTNVGHNTY-NH2
modifications: disulfide 3-8; N-terminus assumed
SMILES: CC[C@H](C)[C@H](NC(=O)[C@@H]1CCCN1C(=O)CNC(=O)[C@H](Cc1ccccc1)NC(=O)[C@H](CC(N)=O)NC(=O)[C@H](CC(N)=O)NC(=O)[C@H](CO)NC(=O)[C@H](CO)NC(=O)[C@H](Cc1c[nH]cn1)NC(=O)C(C)(C)NC(=O)[C@H](CC(C)C)NC(=O)[C@H](Cc1ccccc1)NC(=O)[C@H](CC(N)=O)NC(=O)[C@H](C)NC(=O)[C@H](CC(C)C)NC(=O)[C@H](CCCNC(=N)N)NC(=O)[C@H](CCC(N)=O)NC(=O)[C@@H](NC(=O)[C@H](C)NC(=O)[C@@H]1CSSC[C@H](NC(=O)[C@H](CCCCN)NC(=O)[C@@H](N)CCCCNC(=O)CC[C@H](NC(=O)CCCCCCCCCCCCCCCCC(=O)O)C(=O)O)C(=O)N[C@@H](CC(N)=O)C(=O)N[C@@H]([C@@H](C)O)C(=O)N[C@@H](C)C(=O)N[C@@H]([C@@H](C)O)C(=O)N1)[C@@H](C)O)C(=O)N[C@@H](CC(C)C)C(=O)N1CCC[C@H]1C(=O)N1CCC[C@H]1C(=O)N[C@H](C(=O)N[C@@H](CC(N)=O)C(=O)N[C@H](C(=O)NCC(=O)N[C@@H](Cc1c[nH]cn1)C(=O)N[C@@H](CC(N)=O)C(=O)N[C@H](C(=O)N[C@@H](Cc1ccc(O)cc1)C(N)=O)[C@@H](C)O)C(C)C)[C@@H](C)O
B5: Peptide 146 (SEQ ID NO: 146) (peptide)
peptide: K([γGlu-C18 diacid])KCNTATCATQRLANFL[Aib]HSSNNFGPILPPTHVGSETY-NH2
modifications: disulfide 3-8; N-terminus assumed
SMILES: CC[C@H](C)[C@H](NC(=O)[C@@H]1CCCN1C(=O)CNC(=O)[C@H](Cc1ccccc1)NC(=O)[C@H](CC(N)=O)NC(=O)[C@H](CC(N)=O)NC(=O)[C@H](CO)NC(=O)[C@H](CO)NC(=O)[C@H](Cc1c[nH]cn1)NC(=O)C(C)(C)NC(=O)[C@H](CC(C)C)NC(=O)[C@H](Cc1ccccc1)NC(=O)[C@H](CC(N)=O)NC(=O)[C@H](C)NC(=O)[C@H](CC(C)C)NC(=O)[C@H](CCCNC(=N)N)NC(=O)[C@H](CCC(N)=O)NC(=O)[C@@H](NC(=O)[C@H](C)NC(=O)[C@@H]1CSSC[C@H](NC(=O)[C@H](CCCCN)NC(=O)[C@@H](N)CCCCNC(=O)CC[C@H](NC(=O)CCCCCCCCCCCCCCCCC(=O)O)C(=O)O)C(=O)N[C@@H](CC(N)=O)C(=O)N[C@@H]([C@@H](C)O)C(=O)N[C@@H](C)C(=O)N[C@@H]([C@@H](C)O)C(=O)N1)[C@@H](C)O)C(=O)N[C@@H](CC(C)C)C(=O)N1CCC[C@H]1C(=O)N1CCC[C@H]1C(=O)N[C@H](C(=O)N[C@@H](Cc1c[nH]cn1)C(=O)N[C@H](C(=O)NCC(=O)N[C@@H](CO)C(=O)N[C@@H](CCC(=O)O)C(=O)N[C@H](C(=O)N[C@@H](Cc1ccc(O)cc1)C(N)=O)[C@@H](C)O)C(C)C)[C@@H](C)O
B6: Peptide 147 (SEQ ID NO: 147) (peptide)
peptide: K([γGlu-C18 diacid])KCNTATCATQRLANFL[Aib]HSSNHFGPILPPTNVGSETY-NH2
modifications: disulfide 3-8; N-terminus assumed
SMILES: CC[C@H](C)[C@H](NC(=O)[C@@H]1CCCN1C(=O)CNC(=O)[C@H](Cc1ccccc1)NC(=O)[C@H](Cc1c[nH]cn1)NC(=O)[C@H](CC(N)=O)NC(=O)[C@H](CO)NC(=O)[C@H](CO)NC(=O)[C@H](Cc1c[nH]cn1)NC(=O)C(C)(C)NC(=O)[C@H](CC(C)C)NC(=O)[C@H](Cc1ccccc1)NC(=O)[C@H](CC(N)=O)NC(=O)[C@H](C)NC(=O)[C@H](CC(C)C)NC(=O)[C@H](CCCNC(=N)N)NC(=O)[C@H](CCC(N)=O)NC(=O)[C@@H](NC(=O)[C@H](C)NC(=O)[C@@H]1CSSC[C@H](NC(=O)[C@H](CCCCN)NC(=O)[C@@H](N)CCCCNC(=O)CC[C@H](NC(=O)CCCCCCCCCCCCCCCCC(=O)O)C(=O)O)C(=O)N[C@@H](CC(N)=O)C(=O)N[C@@H]([C@@H](C)O)C(=O)N[C@@H](C)C(=O)N[C@@H]([C@@H](C)O)C(=O)N1)[C@@H](C)O)C(=O)N[C@@H](CC(C)C)C(=O)N1CCC[C@H]1C(=O)N1CCC[C@H]1C(=O)N[C@H](C(=O)N[C@@H](CC(N)=O)C(=O)N[C@H](C(=O)NCC(=O)N[C@@H](CO)C(=O)N[C@@H](CCC(=O)O)C(=O)N[C@H](C(=O)N[C@@H](Cc1ccc(O)cc1)C(N)=O)[C@@H](C)O)C(C)C)[C@@H](C)O

Tests used:
[1] = target: T1, human calcitonin receptor; assay: cell-based or functional assay
[2] = target: T2, human amylin receptor (calcitonin …); assay: cell-based or functional assay

| Binder | EC50 (cAMP production) [1] | EC50 (cAMP production) [2] | Ratio (EC50 hCTR / EC50 hAMYR3) [2] |
| --- | --- | --- | --- |
| B1 | 2.27 nM | 0.73 nM | 3.1 |
| B2 | 6.94 nM | 0.592 nM | 11.7 |
| B3 | 0.725 nM | 0.138 nM | 5.3 |
| B4 | 1.88 nM | 0.417 nM | 4.5 |
| B5 | 4.87 nM | 2.53 nM | 1.9 |
| B6 | 1.51 nM | 0.802 nM | 1.9 |
